In publication PMC8164048:

What was measured:
[1] = molecular target: Full-length human low-density lipoprotein receptor-related protein 1 (LRP1) (human) (UniProt Q07954); experiment: SPR; LRP1-coupled chip; lipid-free apoE isoforms; equilibrium analysis, Req from a pseudo first-order fit of the association data
[2] = molecular target: Full-length human low-density lipoprotein receptor-related protein 1 (LRP1) (human) (UniProt Q07954); experiment: SPR; LRP1-coupled chip; lipid-free apoE isoforms injected at 52, 104, 208, 417, 834, 1668 nM; association and dissociation fit globally to a bivalent binding model; KD = 1/KA, KA = (ka1/kd1)*(1+(ka2/kd2))
[3] = molecular target: Full-length human low-density lipoprotein receptor-related protein 1 (LRP1) (human) (UniProt Q07954); experiment: SPR; full-length LRP1 coupled to the chip (Biacore 3000); single-cycle kinetic titration of tau forms (3.8, 11.5, 34.4, 103.3, 310 nM, 3.5-min injections), with Ca2+; Req from a pseudo first-order fit plotted against concentration, KD by nonlinear regression

UniProt Q07954, sequence (Q07954 20-4544): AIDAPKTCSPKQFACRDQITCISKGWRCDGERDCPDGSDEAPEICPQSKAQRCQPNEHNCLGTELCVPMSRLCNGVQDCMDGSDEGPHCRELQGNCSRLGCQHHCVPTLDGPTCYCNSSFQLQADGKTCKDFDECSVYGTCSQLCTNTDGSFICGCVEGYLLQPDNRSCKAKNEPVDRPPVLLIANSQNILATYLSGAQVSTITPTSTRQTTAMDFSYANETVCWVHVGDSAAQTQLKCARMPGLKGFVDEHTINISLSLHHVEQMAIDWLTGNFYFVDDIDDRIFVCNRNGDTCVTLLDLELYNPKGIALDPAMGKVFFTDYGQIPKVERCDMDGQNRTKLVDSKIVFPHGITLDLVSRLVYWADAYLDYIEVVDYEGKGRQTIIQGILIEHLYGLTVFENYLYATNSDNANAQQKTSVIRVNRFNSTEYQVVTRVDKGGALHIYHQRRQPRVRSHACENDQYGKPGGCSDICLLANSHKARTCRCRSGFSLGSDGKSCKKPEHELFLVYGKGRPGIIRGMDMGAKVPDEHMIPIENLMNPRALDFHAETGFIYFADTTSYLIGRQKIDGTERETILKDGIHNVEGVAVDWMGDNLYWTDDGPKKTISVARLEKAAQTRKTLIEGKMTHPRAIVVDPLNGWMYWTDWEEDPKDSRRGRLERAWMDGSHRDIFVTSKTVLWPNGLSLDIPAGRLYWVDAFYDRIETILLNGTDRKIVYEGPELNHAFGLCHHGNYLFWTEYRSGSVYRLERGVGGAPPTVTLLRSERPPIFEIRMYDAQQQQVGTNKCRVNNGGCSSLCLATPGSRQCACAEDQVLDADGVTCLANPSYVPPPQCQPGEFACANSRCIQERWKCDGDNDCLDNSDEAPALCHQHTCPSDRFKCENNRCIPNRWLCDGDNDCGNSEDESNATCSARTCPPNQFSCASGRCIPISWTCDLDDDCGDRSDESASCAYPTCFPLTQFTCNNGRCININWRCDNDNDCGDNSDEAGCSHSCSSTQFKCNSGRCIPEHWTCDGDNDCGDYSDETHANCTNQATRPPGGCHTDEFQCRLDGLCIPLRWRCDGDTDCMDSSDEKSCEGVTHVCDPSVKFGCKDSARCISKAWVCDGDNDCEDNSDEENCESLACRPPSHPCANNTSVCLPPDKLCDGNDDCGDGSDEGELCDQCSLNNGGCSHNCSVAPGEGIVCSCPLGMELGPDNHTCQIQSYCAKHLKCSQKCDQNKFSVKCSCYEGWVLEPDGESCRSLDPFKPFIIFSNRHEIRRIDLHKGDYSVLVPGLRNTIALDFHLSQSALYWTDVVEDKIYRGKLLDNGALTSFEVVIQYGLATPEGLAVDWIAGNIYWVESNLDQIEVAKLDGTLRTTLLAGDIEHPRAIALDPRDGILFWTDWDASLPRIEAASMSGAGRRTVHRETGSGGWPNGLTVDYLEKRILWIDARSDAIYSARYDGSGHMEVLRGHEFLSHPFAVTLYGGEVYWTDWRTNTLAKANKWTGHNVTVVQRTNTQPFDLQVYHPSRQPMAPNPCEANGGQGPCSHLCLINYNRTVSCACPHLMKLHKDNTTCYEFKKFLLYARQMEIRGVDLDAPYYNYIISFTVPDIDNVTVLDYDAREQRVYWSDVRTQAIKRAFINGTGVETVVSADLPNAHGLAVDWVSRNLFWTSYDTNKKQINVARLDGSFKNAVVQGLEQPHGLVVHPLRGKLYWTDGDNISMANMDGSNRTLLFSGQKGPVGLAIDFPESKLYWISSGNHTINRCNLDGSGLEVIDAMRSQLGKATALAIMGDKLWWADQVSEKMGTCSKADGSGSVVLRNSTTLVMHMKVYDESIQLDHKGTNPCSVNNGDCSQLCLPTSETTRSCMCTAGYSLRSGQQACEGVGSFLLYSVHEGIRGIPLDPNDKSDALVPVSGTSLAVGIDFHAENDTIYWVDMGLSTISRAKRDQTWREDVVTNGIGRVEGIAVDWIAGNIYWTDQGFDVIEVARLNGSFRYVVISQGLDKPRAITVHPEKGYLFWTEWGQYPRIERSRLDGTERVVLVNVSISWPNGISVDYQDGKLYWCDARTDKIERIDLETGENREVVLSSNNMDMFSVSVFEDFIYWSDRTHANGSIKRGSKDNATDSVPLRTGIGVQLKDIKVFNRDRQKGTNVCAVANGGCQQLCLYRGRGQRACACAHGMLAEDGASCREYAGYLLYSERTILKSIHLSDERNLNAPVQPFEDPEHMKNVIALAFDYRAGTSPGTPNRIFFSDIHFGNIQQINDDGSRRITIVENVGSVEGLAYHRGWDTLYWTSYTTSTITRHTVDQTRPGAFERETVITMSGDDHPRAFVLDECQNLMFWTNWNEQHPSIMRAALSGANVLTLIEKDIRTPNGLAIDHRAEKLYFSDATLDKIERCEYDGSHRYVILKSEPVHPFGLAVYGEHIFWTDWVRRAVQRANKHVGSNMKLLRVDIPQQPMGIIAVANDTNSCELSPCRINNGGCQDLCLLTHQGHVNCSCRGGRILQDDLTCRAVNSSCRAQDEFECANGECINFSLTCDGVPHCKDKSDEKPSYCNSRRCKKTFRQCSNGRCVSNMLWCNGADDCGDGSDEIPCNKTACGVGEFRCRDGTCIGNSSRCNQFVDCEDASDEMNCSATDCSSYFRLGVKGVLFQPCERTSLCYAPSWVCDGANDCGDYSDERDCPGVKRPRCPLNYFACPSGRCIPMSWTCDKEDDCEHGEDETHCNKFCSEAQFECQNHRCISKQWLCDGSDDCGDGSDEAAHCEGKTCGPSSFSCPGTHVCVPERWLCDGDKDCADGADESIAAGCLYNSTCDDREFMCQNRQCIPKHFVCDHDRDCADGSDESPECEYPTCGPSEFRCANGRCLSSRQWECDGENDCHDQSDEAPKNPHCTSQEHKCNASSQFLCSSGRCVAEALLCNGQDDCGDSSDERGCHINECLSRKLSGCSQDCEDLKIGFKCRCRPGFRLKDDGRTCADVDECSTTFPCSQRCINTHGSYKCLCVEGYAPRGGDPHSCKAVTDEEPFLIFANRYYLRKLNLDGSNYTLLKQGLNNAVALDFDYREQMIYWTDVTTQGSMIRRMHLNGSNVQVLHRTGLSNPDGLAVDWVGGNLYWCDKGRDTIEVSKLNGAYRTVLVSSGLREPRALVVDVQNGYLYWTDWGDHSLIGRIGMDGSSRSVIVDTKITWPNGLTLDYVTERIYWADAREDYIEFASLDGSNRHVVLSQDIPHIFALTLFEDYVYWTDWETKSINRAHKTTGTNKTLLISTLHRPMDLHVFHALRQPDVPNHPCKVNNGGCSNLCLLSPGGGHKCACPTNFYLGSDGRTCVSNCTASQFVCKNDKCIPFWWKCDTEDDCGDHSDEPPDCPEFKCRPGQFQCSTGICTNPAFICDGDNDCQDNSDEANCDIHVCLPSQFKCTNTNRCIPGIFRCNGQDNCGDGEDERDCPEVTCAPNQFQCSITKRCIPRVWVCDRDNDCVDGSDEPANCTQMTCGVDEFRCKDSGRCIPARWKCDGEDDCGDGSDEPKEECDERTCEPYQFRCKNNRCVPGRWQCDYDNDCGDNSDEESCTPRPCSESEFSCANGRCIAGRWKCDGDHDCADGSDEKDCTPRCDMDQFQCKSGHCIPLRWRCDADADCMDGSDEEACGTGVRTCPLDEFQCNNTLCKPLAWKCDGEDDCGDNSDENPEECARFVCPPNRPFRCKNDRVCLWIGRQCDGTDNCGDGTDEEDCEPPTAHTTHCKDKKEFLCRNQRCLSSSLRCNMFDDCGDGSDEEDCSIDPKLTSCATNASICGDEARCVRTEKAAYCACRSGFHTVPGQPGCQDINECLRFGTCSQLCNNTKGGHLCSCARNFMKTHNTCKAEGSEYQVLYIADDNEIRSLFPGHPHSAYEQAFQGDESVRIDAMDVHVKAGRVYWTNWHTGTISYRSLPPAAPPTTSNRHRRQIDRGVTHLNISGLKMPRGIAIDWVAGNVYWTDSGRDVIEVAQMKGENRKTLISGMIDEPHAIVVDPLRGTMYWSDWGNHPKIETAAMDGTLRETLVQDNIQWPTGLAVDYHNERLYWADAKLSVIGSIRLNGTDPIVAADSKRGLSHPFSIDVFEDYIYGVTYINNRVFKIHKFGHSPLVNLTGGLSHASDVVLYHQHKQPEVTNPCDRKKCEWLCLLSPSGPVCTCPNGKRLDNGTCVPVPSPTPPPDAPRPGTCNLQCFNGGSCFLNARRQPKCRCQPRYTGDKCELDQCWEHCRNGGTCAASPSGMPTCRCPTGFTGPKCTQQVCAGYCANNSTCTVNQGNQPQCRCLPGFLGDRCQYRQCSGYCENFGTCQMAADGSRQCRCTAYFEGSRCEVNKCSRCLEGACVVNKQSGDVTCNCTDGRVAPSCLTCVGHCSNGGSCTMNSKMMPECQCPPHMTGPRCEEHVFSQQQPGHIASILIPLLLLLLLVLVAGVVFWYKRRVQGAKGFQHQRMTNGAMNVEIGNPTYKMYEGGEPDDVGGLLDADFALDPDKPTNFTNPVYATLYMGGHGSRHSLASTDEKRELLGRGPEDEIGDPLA

Recombinant human apolipoprotein E2 (lipid-free) (from UniProt P02649 19-317) (ligand)
Kd [1]: 493 nM
Kd [2]: 529 nM
ka1 [2]: 34000 M⁻¹ s⁻¹
ka2 [2]: 0.01 s⁻¹
kd1 [2]: 0.086 s⁻¹
kd2 [2]: 0.0028 s⁻¹

Recombinant human apolipoprotein E4 (lipid-free) (from UniProt P02649 19-317) (ligand)
Kd [1]: 236 nM
Kd [2]: 202 nM
ka1 [2]: 62000 M⁻¹ s⁻¹
ka2 [2]: 0.0099 s⁻¹
kd1 [2]: 0.065 s⁻¹
kd2 [2]: 0.0027 s⁻¹

9XKQ 2N4R tau (natural protein)
Kd [3]: 372 nM
